# B1: murine MD-1 (other, UniProt O88188 20-162, looked up)
# chain: DHGSENGWPKHTACNSGGLEVVYQSCDPLQDFGLSIDQCSKQIQSNLNIRFGIILRQDIRKLFLDITLMAKGSSILNYSYPLCEEDQPKFSFCGRRKGEQIYYAGPVNNPGLDVPQGEYQLLLELYNENRATVACANATVTSS
# notes: whole, on cells; also called mouse MD-1
# How the values were obtained:
# [1] = molecular target: T1, CD14 on mouse dendritic cells (mouse, UniProt P10810 16-336); experiment: co-capping on DC: anti-CD14 staining reduced after capping of MD-1 with SH1.2.47 (FACS)
# T1 construct: whole, on cells
# T1 sequence (looked up): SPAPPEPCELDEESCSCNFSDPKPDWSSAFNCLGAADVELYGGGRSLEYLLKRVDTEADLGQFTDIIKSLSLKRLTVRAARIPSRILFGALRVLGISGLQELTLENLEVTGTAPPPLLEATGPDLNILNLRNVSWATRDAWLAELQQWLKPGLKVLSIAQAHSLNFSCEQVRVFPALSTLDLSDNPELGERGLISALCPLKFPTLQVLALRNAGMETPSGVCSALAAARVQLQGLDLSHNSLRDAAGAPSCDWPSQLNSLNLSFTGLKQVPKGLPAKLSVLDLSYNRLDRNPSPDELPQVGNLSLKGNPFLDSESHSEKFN
# Experimental: (§1) FIG. 3 is FACS analysis of the effect of pretreatment of DC with anti-MD-1 antibody on cell surface expression of molecules on dendritic cells. Cells in the columns shown were preincubated (60 minutes at 4° C.) in medium, rat anti-DC26, or anti-MD-1 (SH1.2.47), prior to washing and incubation at 37° C. with anti-rat Ig. Thereafter cells were stained with different mAbs as in FIG. 2.
# [2] = molecular target: T2, CD80 (B7-1) on mouse dendritic cells (mouse, UniProt Q00609 38-306); experiment: co-capping: DC pre-incubated with SH1.2.47 and anti-rat Ig at 37 C, then FACS staining of the other surface molecules
# T2 construct: whole, on cells
# T2 sequence (looked up): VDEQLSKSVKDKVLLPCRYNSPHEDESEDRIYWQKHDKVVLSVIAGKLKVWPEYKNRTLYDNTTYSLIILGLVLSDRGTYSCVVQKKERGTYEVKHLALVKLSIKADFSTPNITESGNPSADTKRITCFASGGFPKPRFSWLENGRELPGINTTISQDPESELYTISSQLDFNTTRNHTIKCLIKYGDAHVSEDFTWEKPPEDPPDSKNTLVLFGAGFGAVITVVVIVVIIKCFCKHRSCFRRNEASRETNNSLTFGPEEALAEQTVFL
# Experimental: as §1
# [3] = molecular target: T3, CD86 (B7-2) on mouse dendritic cells (mouse, UniProt P42082 24-309); experiment: as above
# T3 construct: whole, on cells
# T3 sequence (looked up): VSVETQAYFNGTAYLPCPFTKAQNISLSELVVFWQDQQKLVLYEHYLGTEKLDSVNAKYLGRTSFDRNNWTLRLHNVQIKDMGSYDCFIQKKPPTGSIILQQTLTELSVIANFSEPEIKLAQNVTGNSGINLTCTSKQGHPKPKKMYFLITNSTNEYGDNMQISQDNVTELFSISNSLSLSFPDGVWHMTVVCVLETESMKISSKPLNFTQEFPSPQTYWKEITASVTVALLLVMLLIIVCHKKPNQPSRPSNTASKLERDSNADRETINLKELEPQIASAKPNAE
# Experimental: as §1
# [4] = molecular target: T4, DEC205 on mouse dendritic cells (mouse, UniProt Q60767 28-1723); experiment: as above
# T4 construct: whole, on cells
# Experimental: as §1
# [5] = molecular target: T5, OX-2 (CD200) on mouse dendritic cells (mouse, UniProt O54901 31-278); experiment: as above
# T5 construct: whole, on cells
# T5 sequence (looked up): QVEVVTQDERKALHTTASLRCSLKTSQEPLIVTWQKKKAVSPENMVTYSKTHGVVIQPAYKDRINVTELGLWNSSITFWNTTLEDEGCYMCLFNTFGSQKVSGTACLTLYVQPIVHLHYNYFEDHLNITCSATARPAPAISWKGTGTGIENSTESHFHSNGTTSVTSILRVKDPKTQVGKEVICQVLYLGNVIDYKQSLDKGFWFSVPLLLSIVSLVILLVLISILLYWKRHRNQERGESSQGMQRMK
# Experimental: as §1
# T4 sequence (Q60767 28-1723): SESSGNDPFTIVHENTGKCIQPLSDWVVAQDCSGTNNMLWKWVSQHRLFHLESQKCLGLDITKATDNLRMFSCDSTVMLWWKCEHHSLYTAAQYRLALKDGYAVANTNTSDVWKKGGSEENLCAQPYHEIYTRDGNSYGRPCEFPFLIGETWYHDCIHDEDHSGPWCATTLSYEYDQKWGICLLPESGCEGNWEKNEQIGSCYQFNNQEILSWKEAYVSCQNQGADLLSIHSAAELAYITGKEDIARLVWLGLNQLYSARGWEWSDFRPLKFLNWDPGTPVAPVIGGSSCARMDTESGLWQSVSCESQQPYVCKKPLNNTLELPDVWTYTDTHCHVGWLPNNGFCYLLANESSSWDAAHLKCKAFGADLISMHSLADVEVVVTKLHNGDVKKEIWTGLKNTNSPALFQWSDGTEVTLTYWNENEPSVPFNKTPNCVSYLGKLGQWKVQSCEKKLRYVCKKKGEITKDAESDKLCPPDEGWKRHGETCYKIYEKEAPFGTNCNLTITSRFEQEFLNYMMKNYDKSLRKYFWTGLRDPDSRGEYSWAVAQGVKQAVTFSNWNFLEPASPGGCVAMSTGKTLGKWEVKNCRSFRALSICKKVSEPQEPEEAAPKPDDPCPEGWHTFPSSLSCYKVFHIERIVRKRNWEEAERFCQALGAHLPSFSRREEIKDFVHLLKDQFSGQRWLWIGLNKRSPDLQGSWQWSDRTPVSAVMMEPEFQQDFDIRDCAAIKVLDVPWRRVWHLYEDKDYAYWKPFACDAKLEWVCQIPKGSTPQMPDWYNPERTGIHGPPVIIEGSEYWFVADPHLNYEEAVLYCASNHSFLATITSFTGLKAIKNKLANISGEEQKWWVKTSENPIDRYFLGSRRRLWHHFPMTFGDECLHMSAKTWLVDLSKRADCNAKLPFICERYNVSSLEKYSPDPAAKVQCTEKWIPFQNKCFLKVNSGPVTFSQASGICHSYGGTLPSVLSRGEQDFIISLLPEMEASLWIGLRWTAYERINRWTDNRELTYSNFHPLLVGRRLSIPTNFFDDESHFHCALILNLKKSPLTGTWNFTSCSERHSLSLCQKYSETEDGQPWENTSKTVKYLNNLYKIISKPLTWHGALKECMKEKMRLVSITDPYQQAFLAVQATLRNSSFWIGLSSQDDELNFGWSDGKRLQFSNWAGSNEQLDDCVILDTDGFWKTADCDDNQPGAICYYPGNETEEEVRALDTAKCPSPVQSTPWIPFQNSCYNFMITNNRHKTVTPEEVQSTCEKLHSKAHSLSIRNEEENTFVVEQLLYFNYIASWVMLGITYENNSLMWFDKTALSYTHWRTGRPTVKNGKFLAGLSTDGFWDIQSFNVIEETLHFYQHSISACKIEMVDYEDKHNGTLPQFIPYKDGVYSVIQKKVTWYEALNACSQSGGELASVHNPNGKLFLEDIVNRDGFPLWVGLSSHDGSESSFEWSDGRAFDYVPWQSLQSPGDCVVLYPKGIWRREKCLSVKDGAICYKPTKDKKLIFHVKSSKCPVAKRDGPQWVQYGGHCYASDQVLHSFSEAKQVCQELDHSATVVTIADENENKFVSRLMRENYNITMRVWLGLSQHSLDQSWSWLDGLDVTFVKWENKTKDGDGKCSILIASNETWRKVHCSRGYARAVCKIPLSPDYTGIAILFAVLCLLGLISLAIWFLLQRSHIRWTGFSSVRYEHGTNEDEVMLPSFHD
binder,measurement,setting,value
B1,binding result,[1],binds
same,binding result,[2],no binding
same,binding result,[3],no binding
same,binding result,[4],no binding
same,binding result,[5],no binding
